To fix the notation:
B1: Nitrate/nitrite sensor protein NarX (Escherichia coli (strain K12)), P0AFA2 (parent)
chain: MLKRCLSPLTLVNQVALIVLLSTAIGLAGMAVSGWLVQGVQGSAHAINKAGSLRMQSYRLLAAVPLSEKDKPLIKEMEQTAFSAELTRAAERDGQLAQLQGLQDYWRNELIPALMRAQNRETVSADVSQFVAGLDQLVSGFDRTTEMRIETVVLVHRVMAVFMALLLVFTIIWLRARLLQPWRQLLAMASAVSHRDFTQRANISGRNEMAMLGTALNNMSAELAESYAVLEQRVQEKTAGLEHKNQILSFLWQANRRLHSRAPLCERLSPVLNGLQNLTLLRDIELRVYDTDDEENHQEFTCQPDMTCDDKGCQLCPRGVLPVGDRGTTLKWRLADSHTQYGILLATLPQGRHLSHDQQQLVDTLVEQLTATLALDRHQERQQQLIVMEERATIARELHDSIAQSLSCMKMQVSCLQMQGDALPESSRELLSQIRNELNASWAQLRELLTTFRLQLTEPGLRPALEASCEEYSAKFGFPVKLDYQLPPRLVPSHQAIHLLQIAREALSNALKHSQASEVVVTVAQNDNQVKLTVQDNGCGVPENAIRSNHYGMIIMRDRAQSLRGDCRVRRRESGGTEVVVTFIPEKTFTDVQGDTHE

This assay covers variants of B1. To be noted: with narl_ecoli narL.
Turning to H399Q;Q404A, the “effect of a mutation on the interaction” value is “disrupting interaction”.
Regarding H399Q;Q404H, the “effect of a mutation on the interaction” value is recorded as “disrupting interaction”.
To H399Q;D400A belongs “decreasing interaction”.
With H399Q the entry was “decreasing interaction”.

Source of the values: IntAct's records for PubMed 21078995.
